Measured values: publication PMC4671958

Molecular target: DNA polymerase theta helicase domain (Polθ-HLD), residues 1–894 (human), O75417
Assay: crystal structure; apo protein, 3.55 Å, four copies in the asymmetric unit; crystallized in 0.2 M NaCl, 0.1 M HEPES (pH 7.0), 20% PEG 6K, 10% ethylene glycol
Conditions: remark: other sources report otherwise

- stoichiometry N: 4
B1: DNA polymerase theta helicase domain (Polθ-HLD), residues 1–894, O75417 1-894 (domain or fragment)
chain: MNLLRRSGKRRRSESGSDSFSGSGGDSSASPQFLSGSVLSPPPGLGRCLKAAAAGECKPTVPDYERDKLLLANWGLPKAVLEKYHSFGVKKMFEWQAECLLLGQVLEGKNLVYSAPTSAGKTLVAELLILKRVLEMRKKALFILPFVSVAKEKKYYLQSLFQEVGIKVDGYMGSTSPSRHFSSLDIAVCTIERANGLINRLIEENKMDLLGMVVVDELHMLGDSHRGYLLELLLTKICYITRKSASCQADLASSLSNAVQIVGMSATLPNLELVASWLNAELYHTDFRPVPLLESVKVGNSIYDSSMKLVREFEPMLQVKGDEDHVVSLCYETICDNHSVLLFCPSKKWCEKLADIIAREFYNLHHQAEGLVKPSECPPVILEQKELLEVMDQLRRLPSGLDSVLQKTVPWGVAFHHAGLTFEERDIIEGAFRQGLIRVLAATSTLSSGVNLPARRVIIRTPIFGGRPLDILTYKQMVGRAGRKGVDTVGESILICKNSEKSKGIALLQGSLKPVRSCLQRREGEEVTGSMIRAILEIIVGGVASTSQDMHTYAACTFLAASMKEGKQGIQRNQESVQLGAIEACVMWLLENEFIQSTEASDGTEGKVYHPTHLGSATLSSSLSPADTLDIFADLQRAMKGFVLENDLHILYLVTPMFEDWTTIDWYRFFCLWEKLPTSMKRVAELVGVEEGFLARCVKGKVVARTERQHRQMAIHKRFFTSLVLLDLISEVPLREINQKYGCNRGQIQSLQQSAAVYAGMITVFSNRLGWHNMELLLSQFQKRLTFGIQRELCDLVRVSLLNAQRARVLYASGFHTVADLARANIVEVEVILKNAVPFKSARKAVDEEEEAVEERRNMRTIWVTGRKGLTEREAAALIVEEARMILQQDLVEM
